In assay [1] the target is human IgG (Chugai Pharmaceutical Co., Ltd.) (human). Description: SPR (BIAcore T200), IgG immobilised; 1:1 binding fit.
For assay [2] the target is unchanged. The assay is described as follows: SPR (BIAcore T200), IgG immobilised; equilibrium value.
For assay [3] the target is unchanged. Description: SPR (BIAcore T200), IgG immobilised.

*1 amine or outer side, *2 acyl side, *3 side chain or, on linkers, in order; H or OH if unused. Bridges are numbered along the chain shown (N, C = ends). Primed or numbered codes have the meaning given here. The star is where a group is joined. Biotin = O=C1N[C@H]2[C@H](CS[C@H]2CCCCC(=O)*)N1; Glutaryl = O=C(CCCC(=O)[*:2])[*:1]; HOOC(CH2)6CO = O=C(O)CCCCCCC(=O)*; PEG4′ = not defined here

On to {Biotin-PEG4′}-GDDCAYHK(Glutaryl)GELVWCTFH-NH2 (disulfide 4-14 (inferred)) [Type I(R8K)-DSG-OH, GDDCAYHK(DSG-OH)…-NH2], for which the Kd in assay [1] was determined as 315 nM; in assay [2], 330 nM.
{Biotin-PEG4′}-GDDCAYHKGELVWCTFH-NH2 (disulfide 4-14 (inferred)) [Type I(R8K) IgG-binding peptide, …-NH2] registered a fold decrease in affinity against Type I in assay [3] of 10 times. For the same molecule, the figures for the Kd in assay [1] and in assay [2] were 156 nM and 131 nM, respectively.
Take {Biotin-PEG4′}-GDDCAYHK(HOOC(CH2)6CO)GELVWCTFH-NH2 (disulfide 4-14 (inferred)) [Type I(R8K)-DSS-OH, GDDCAYHK(DSS-OH)…-NH2]: the Kd came out at 365 nM in assay [1] and 389 nM in assay [2].
For {Biotin-PEG4′}-GPDCAYHRGELVWCTFH-NH2 (disulfide 4-14 (inferred)) [Type I IgG-binding peptide, …-NH2], in that order: 9.1 nM and 10 nM.

Values taken from patent publication USRE50282.
